Data on three molecules can be found in patent publication US12723255B2, “Herbicide tolerance genes and methods of use thereof” (priority 2014, dated 2026).

The test system of data set [1] is F1 hybrid maize plants. Kind of data set: efficacy field trial for 2,4-D tolerance. The format is in vivo. To be noted: scale 0 to 100, with CTP unless label says no CTP; for average injury rating, V4 Growth Stage, 8x 2,4-D / average injury rating, V8 Growth Stage, 8x 2,4-D: 8 lb ae/acre at VE-V2, V4, V8; for average injury rating, V4 Growth Stage, 16x 2,4-D / average injury rating, V8 Growth Stage, 16x 2,4-D: 16 lb ae/acre at VE-V2, V4, V8. The protocol:
(§1) Separate trait efficacy field trials for quizalofop-P and 2,4-D were conducted at two locations cach with F1 hybrid transgenic plants produced by crossing an inbred plant containing maize event MON89034 with an R1 plant containing MON-HT55 (with a CTP), MON-HTI (with or without a CTP), MON-HT2 (with or without a CTP), MON-HT3 (with a CTP), MON-HT4 (with a CTP), MON-HT5 (with a CTP), MON-HT6 (with a CTP), or MON-HT7 (with a CTP). Transgenic F1 hybrid plants containing maize events NK603×MON89034 were used for comparison as a control.
In the efficacy field trial for 2,4-D tolerance, one of four herbicide treatments was used: (1) 2,4-D amine at 2 lb ac/acre (2×) plus 0.25% v/v non-ionic surfactant (NIS) applied to VE to V2 followed by V4 followed by V8; (2) 2,4-D amine at 4 lb ac/acre (4×) plus 0.25% v/v NIS applied to VE to V2 followed by V4 followed by V8; (3) 2,4-D amine at 8 lb ac/acre (8×) plus 0.25% v/v NIS applied to VE to V2 followed by V4 followed by V8 maize; or (4) 2,4-D amine at 16 lb ac/acre (16×) plus 0.25% v/v NIS applied to VE to V2 followed by V4 followed by V8. Plots were visually rated as above. Tables 14 and 15 show the average injury ratings after herbicide application at V4 or V8 growth stage, respectively.

Data set [2] relates to F1 hybrid maize plants. Kind of data set: efficacy field trial for quizalofop-P tolerance and clethodim sensitivity. Type of data set: in vivo. The settings on record: scale 0 to 100; for average injury rating, V8 Growth Stage, 1x Clethodim: clethodim 0.25 lb ai/acre at V8, volunteer control. The protocol: as §1
In the efficacy field trial for quizalofop-P tolerance and clethodim sensitivity, one of four herbicide treatments was used: (1) quizalofop-P (Assure II) at 0.32 lb ai/acre (4×) plus 0.25% v/v non-ionic surfactant (NIS) applied at VE-V2 growth stage followed by the same at V4 growth stage followed by the same at V8 growth stage; (2) quizalofop-P at 0.64 lb ai/acre (8×) plus 0.25% v/v NIS applied at VE to V2 growth stage followed by the same at V4 growth stage followed by the same at V8 growth stage; (3) quizalofop-P at 1.28 lb ai/acre (16×) plus 0.25% v/v NIS applied at VE to V2 growth stage followed by the same at V4 growth stage followed by the same at V8growth stage; or (4) clethodim at 0.25 lb ai/acre (1×) plus 0.25% v/v NIS applied at V8 growth stage. Plots were visually rated 10-14 days after application for crop injury on a scale of 0 to 100with “0” being none and “100” being complete crop destruction. Tables 14 and 15 show the average injury ratings after herbicide application at V4 or V8 growth stage, respectively.

The format of data set [3] is biochemical. The protocol: To analyze these engineered proteins for activity in higher temperatures, the in vitro enzyme assay in Example 1 was modified to specify pre-heating all of the assay components to the desired temperature for 5 minutes before combining the components and then maintaining the reaction at the desired temperature for the duration of the reaction. To normalize the assay measurements, quizalofop-P was used as the substrate for the reaction and enzyme activity was normalized based on the 25° C. readings. Using these parameters, the temperature at which the enzyme activity was half of maximum (T1/2) was calculated. The T1/2 for MON-HT55 was calculated to be 29° C., and the T1/2 for wild-type RdpA was calculated to be 38° C. (FIG. 2A).
Enzyme activity over a range of temperatures was analyzed in-depth for MON-HT1, MON-HT2, MON-HT7, and MON-HT8. These assays were conducted as described above. Quizalofop-P or 2,4-D was used as the substrate for these reactions and activity was normalized based on the activity of the wild-type enzyme at 25° C. The activity curves obtained are presented in FIG. 2B (with quizalofop-P as the substrate) and FIG. 2C (with 2,4-D as the substrate). Using quizalofop-P as the substrate, MON-HT55 was the most temperature sensitive, with a T1/2 of 29° C. […] MON-HTI was slightly less temperature sensitive, with a T1/2 about 1° C. higher than the wild-type enzyme.

The test system of data set [4] is F1 hybrid maize plants. Kind of data set: trait efficacy field trial, quizalofop-P pressure screening, F1 hybrid. The format is in vivo. To be noted: crop injury percentage; for 4X Qizalofop-P CIPV4 / 4X Qizalofop-P CIPV8: 0.32 lb ai/acre at VE-V2, V4, V8; for 8X Qizalofop-P CIPV4 / 8X Qizalofop-P CIPV8: 0.64 lb ai/acre at VE-V2, V4, V8; for 16X Qizalofop-P CIPV4 / 16X Qizalofop-P CIPV8: 1.28 lb ai/acre at VE-V2, V4, V8. The protocol: Separate trait efficacy field trials for quizalofop-P and 2,4-D pressure screening were conducted at one location each with F1 hybrid transgenic plants produced by crossing an inbred plant containing maize event MON89034 with an R1 plant containing MON-HT1, MON-HT2, MON-HT8, MON-HT9, and MON-HT10 with and without operably linked CTP sequences. Transgenic F1 hybrid plants containing maize events NK603×MON89034 were used for comparison as a control.
In the trait efficacy field trial for quizalofop-P tolerance, one of three herbicide treatments was used: (1) quizalofop-P (Assure II) at 0.32 lb ai/acre (4×) plus 0.25% v/v non-ionic surfactant (NIS) applied at VE-V2 growth stage followed by the same at V4 growth stage followed by the same at V8 growth stage; (2) quizalofop-P at 0.64 lb ai/acre (8×) plus 0.25% v/v NIS applied at VE-V2 growth stage followed by the same at V4 growth stage followed by the same at V8 growth stage; or (3) quizalofop-P at 1.28 lb ai/acre (16×) plus 0.25% v/v NIS applied at VE-V2 growth stage followed by the same at V4 growth stage followed by the same at V8 growth stage. Plots were visually rated as above. […] The injury rating for the control plants after all quizalofop-P application was 100%. Error was calculated using LSD (0.05).

The mark [5] stands for this setting: 0.32 lb ai/acre at VE-V2, V4, V8, with CTP unless label says no CTP.
Setting [6] is: 0.64 lb ai/acre at VE-V2, V4, V8, with CTP unless label says no CTP.
[7] abbreviates: 1.28 lb ai/acre at VE-V2, V4, V8, with CTP unless label says no CTP.

“And” between values parts separate entries of the source, which are not always exact repeats. Equal entries are not always repeated.

B1: MON-HT6: engineered oxygenase protein, amino acid sequence SEQ ID NO:31 (protein)
chain: MHAALSPLSQKYRFIDVQPLTGVLGAEITGVTLREPLDDNTWNEILDAFHTYQVIYFPGQAITNEQHIAFSRRFGPVDPVPLLKSIEGYPEVQMIRREANESGRVIGDDWHTDSTFLDAPPAAVVMYAREVPPYGGDTGFLSMYSAWDTLSDTMKATIEGLNVVHSATRVFGSLYQAQNRRFSNTSVKVMDVDAGDRETVHPLVVSHPVTGRRALYCNQVYCQRIEGMTDAESKPLLQFLYEHATRFDFTCRVRWKKDQVLVWDNLCTMHRAVPDYAGKFRYLTRTTVAGDKPSR
For B1, in the data set with F1 hybrid maize plants [1] (2 lb ae/acre at VE-V2, V4, V8), the “average injury rating, V4 Growth Stage, 2x 2,4-D” value was 0.0 and the “average injury rating, V8 Growth Stage, 2x 2,4-D” value came out at 6.3. Moreover, in the data set with F1 hybrid maize plants [1] (4 lb ae/acre at VE-V2, V4, V8), the “average injury rating, V4 Growth Stage, 4x 2,4-D” value is given as 2.0 and the “average injury rating, V8 Growth Stage, 4x 2,4-D” value is recorded as 4.3. Also, in the data set with F1 hybrid maize plants [1], the “average injury rating, V4 Growth Stage, 8x 2,4-D” value amounted to 5.8; the “average injury rating, V8 Growth Stage, 8x 2,4-D” value was determined as 11.3; the “average injury rating, V4 Growth Stage, 16x 2,4-D” value stood at 8.8; the “average injury rating, V8 Growth Stage, 16x 2,4-D” value was determined as 12.5. In addition, in the data set on F1 hybrid maize plants [2] (setting [5]), the “average injury rating, V4 Growth Stage, 4x Quizalofop” value turned out to be 0.0 and the “average injury rating, V8 Growth Stage, 4x Quizalofop” value is listed as 1.3. Moreover, in the data set with F1 hybrid maize plants [2] (setting [6]), the “average injury rating, V4 Growth Stage, 8x Quizalofop” value is 1.3 and the “average injury rating, V8 Growth Stage, 8x Quizalofop” value is 2.0. Further, in the data set on F1 hybrid maize plants [2] (setting [7]), the “average injury rating, V4 Growth Stage, 16x Quizalofop” value was 2.8 and the “average injury rating, V8 Growth Stage, 16x Quizalofop” value is on record as 5.0. The “average injury rating, V8 Growth Stage, 1x Clethodim” value in the data set with F1 hybrid maize plants [2] came out at 93.3.

B2: MON-HT55: engineered oxygenase protein, amino acid sequence SEQ ID NO:11 (protein)
chain: MHAALSPLSQRFERIAVQPLTGVLGAEITGVDLREPLDDSTWNEILDAFHTYQVIYFPGQAITNEQHIAFSRRFGPVDPVPLLKSIEGYPEVQMIRREANESGRVIGENWHTDSTFLDAPPAAVVMYAKEIPPYGGDTLFTSMYTAWETLSPTMQATIEGLNVVHSATRVFGSLYQAQNRRFSNTSVKVMDVDAGDRETVHPLVVTHPETGRKGLYVNQVYCQRIEGMSEKESEPLLSFLFAHATKPEFTCRVRWQEGDVLVWDNLCTQHYAVPDYAGKFRYLTRTTVGGVRPAR
Take B2: the “T1/2, temperature at which the enzyme activity was half of maximum” value in data set [3] amounted to 29 °C. For the same molecule, in the data set on F1 hybrid maize plants [1] (2 lb ae/acre at VE-V2, V4, V8), the “average injury rating, V8 Growth Stage, 2x 2,4-D” value was 15.0 and 12.5 and 16.3 and 14.4 and 11.3. In addition, the “average injury rating, V4 Growth Stage, 4x 2,4-D” value in the data set on F1 hybrid maize plants [1] (4 lb ae/acre at VE-V2, V4, V8) was 31.3 and 22.5 and 41.3 and 23.1 and 30.0. For the same molecule, in the data set on F1 hybrid maize plants [1], the “average injury rating, V4 Growth Stage, 8x 2,4-D” value is 45.0 and 53.8 and 43.8 and 50.0 and 58.8 and 48.8; the “average injury rating, V8 Growth Stage, 8x 2,4-D” value was 33.8 and 36.3 and 39.4 and 30.0 and 35.0; the “average injury rating, V4 Growth Stage, 16x 2,4-D” value was 61.3 and 63.8 and 66.3 and 55.0 and 53.8 and 52.5; the “average injury rating, V8 Growth Stage, 16x 2,4-D” value is 57.5 and 52.5 and 55.0 and 56.9 and 47.5. In the data set on F1 hybrid maize plants [2], the “average injury rating, V8 Growth Stage, 1x Clethodim” value is 94.5 and 93.3.

B3: MON-HT8: engineered oxygenase protein, amino acid sequence SEQ ID NO:37 (protein)
chain: MHAALTPLTNKYRFIDVQPLTGVLGAEITGVDLREPLDDSTWNEILDAFHTYQVIYFPGQAITNEQHIAFSRRFGPVDPVPILKSIEGYPEVQMIRREANESGRVIGDDWHTDSTFLDAPPAAVVMRAIEVPEYGGDTGFLSMYSAWETLSPTMQATIEGLNVVHSATKVFGSLYQATNWRFSNTSVKVMDVDAGDRETVHPLVVTHPVTGRRALYCNQVYCQKIQGMTDAESKSLLQFLYEHATKFDFTCRVRWKKDQVLVWDNLCTMHRSVPDYGNAFRYLTRTTVAGDKPSR
In the case of B3, the “T1/2, temperature at which the enzyme activity was half of maximum” value in data set [3] worked out at 41 °C. In addition, the “temperature sensitivity compared with the wild-type enzyme” value in data set [3] (substrate 2,4-D, lower T1/2 than wild-type) is reported as “slightly more temperature sensitive”. In the data set with F1 hybrid maize plants [4] (CTP A), the “4X Qizalofop-P CIPV4” value is reported as 15, the “4X Qizalofop-P CIPV8” value was 15, the “8X Qizalofop-P CIPV4” value was 37.5 and the “8X Qizalofop-P CIPV8” value was 35. Also, in the data set on F1 hybrid maize plants [4] (CTP A), the “16X Qizalofop-P CIPV4” value is on record as 60 and the “16X Qizalofop-P CIPV8” value turned out to be 50. For the same molecule, in the data set on F1 hybrid maize plants [4] (CTP B), the “4X Qizalofop-P CIPV4” value is reported as 5, the “4X Qizalofop-P CIPV8” value was 7.5, the “8X Qizalofop-P CIPV4” value is recorded as 32.5 and the “8X Qizalofop-P CIPV8” value amounted to 35. Besides, in the data set on F1 hybrid maize plants [4] (CTP B), the “16X Qizalofop-P CIPV4” value is given as 27.5 and the “16X Qizalofop-P CIPV8” value was found to be 30. Further, in the data set with F1 hybrid maize plants [4] (CTP C), the “4X Qizalofop-P CIPV4” value is listed as 55, the “4X Qizalofop-P CIPV8” value is given as 45, the “8X Qizalofop-P CIPV4” value was determined as 75 and the “8X Qizalofop-P CIPV8” value is listed as 55. Moreover, in the data set with F1 hybrid maize plants [4] (CTP C), the “16X Qizalofop-P CIPV4” value is recorded as 85 and the “16X Qizalofop-P CIPV8” value worked out at 72.5.
